From patent US20240279331A1 (University of California, published 2024)

T1: NCR3 (antigen of the ELISA in the affinity-maturation table) (human, UniProt O14931 19-135, limits assumed)
T1 construct: also called Natural Cytotoxicity Triggering Receptor 3
T1 sequence (looked up): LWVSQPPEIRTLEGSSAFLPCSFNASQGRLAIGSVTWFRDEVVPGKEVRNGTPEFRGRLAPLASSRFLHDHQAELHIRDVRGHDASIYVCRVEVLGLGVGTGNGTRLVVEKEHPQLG

T2: NCR3 on cell (on-cell binding in the affinity-maturation table) (human, UniProt O14931 19-201, limits assumed)
T2 construct: On cell
T2 sequence (looked up): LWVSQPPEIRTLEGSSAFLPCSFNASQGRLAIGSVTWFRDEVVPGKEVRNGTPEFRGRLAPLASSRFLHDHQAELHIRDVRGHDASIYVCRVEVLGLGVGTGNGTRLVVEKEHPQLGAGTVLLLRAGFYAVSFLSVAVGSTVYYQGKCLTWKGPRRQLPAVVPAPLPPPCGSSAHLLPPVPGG

B1: NCR3.18.1 (Fab, V domains shown)
VH: EVQLVESGGGLVQPGGSLRLSCAASGFNVSSSSIHWVRQAPGKGLEWVASISSSSGSTSYADSVKGRFTISADTSKNTAYLQMNSLRAEDTAVYYCARRASSRFRSYYDSFYYAGMDYWGQGTLVTVSS
VL: DIQMTQSPSSLSASVGDRVTITCRASQSVSSAVAWYQQKPGKAPKLLIYSASSLYSGVPSRFSGSRSGTDFTLTISSLQPEDFATYYCQQSSSSLITFGQGTKVEIKR
notes: substitutions derived by comparing with parental HC3
B2: NCR3.18.3 (Fab, V domains shown)
VH: EVQLVESGGGLVQPGGSLRLSCAASGFNVSSSSIHWVRQAPGKGLEWVASISSSSGSTSYADSVKGRFTISADTSKNTAYLQMNSLRAEDTAVYYCARRIGSIYRSYYDSFYYAGMDYWGQGTLVTVSS
VL: DIQMTQSPSSLSASVGDRVTITCRASQSVSSAVAWYQQKPGKAPKLLIYSASSLYSGVPSRFSGSRSGTDFTLTISSLQPEDFATYYCQQSSSSLITFGQGTKVEIKR
notes: substitutions derived against parental HC3
B3: NCR3.18.13 (Fab, V domains shown)
VH: EVQLVESGGGLVQPGGSLRLSCAASGFNVSSSSIHWVRQAPGKGLEWVASISSSSGSTSYADSVKGRFTISADTSKNTAYLQMNSLRAEDTAVYYCARRRSSYYMTYYDSFYYAGMDYWGQGTLVTVSS
VL: DIQMTQSPSSLSASVGDRVTITCRASQSVSSAVAWYQQKPGKAPKLLIYSASSLYSGVPSRFSGSRSGTDFTLTISSLQPEDFATYYCQQSSSSLITFGQGTKVEIKR
notes: as for B2
B4: NCR3.18.14 (Fab, V domains shown)
VH: EVQLVESGGGLVQPGGSLRLSCAASGFNVSSSSIHWVRQAPGKGLEWVASISSSSGSTSYADSVKGRFTISADTSKNTAYLQMNSLRAEDTAVYYCARRTGSYYMTYYDSFYYAGMDYWGQGTLVTVSS
VL: DIQMTQSPSSLSASVGDRVTITCRASQSVSSAVAWYQQKPGKAPKLLIYSASSLYSGVPSRFSGSRSGTDFTLTISSLQPEDFATYYCQQSSSSLITFGQGTKVEIKR
notes: as for B2
B5: NCR3.18.12 (Fab, V domains shown)
VH: EVQLVESGGGLVQPGGSLRLSCAASGFNVSSSSIHWVRQAPGKGLEWVASISSSSGSTSYADSVKGRFTISADTSKNTAYLQMNSLRAEDTAVYYCARRRASYYKTYYDSFYYAGMDYWGQGTLVTVSS
VL: DIQMTQSPSSLSASVGDRVTITCRASQSVSSAVAWYQQKPGKAPKLLIYSASSLYSGVPSRFSGSRSGTDFTLTISSLQPEDFATYYCQQSSSSLITFGQGTKVEIKR
notes: as for B2
B6: NCR3.18.10 (Fab, V domains shown)
VH: EVQLVESGGGLVQPGGSLRLSCAASGFNVSSSSIHWVRQAPGKGLEWVASISSSSGSTSYADSVKGRFTISADTSKNTAYLQMNSLRAEDTAVYYCARRKSSYYMSYYDSFYYAGMDYWGQGTLVTVSS
VL: DIQMTQSPSSLSASVGDRVTITCRASQSVSSAVAWYQQKPGKAPKLLIYSASSLYSGVPSRFSGSRSGTDFTLTISSLQPEDFATYYCQQSSSSLITFGQGTKVEIKR
notes: as for B2
B7: NCR3.18.6 (Fab, V domains shown)
VH: EVQLVESGGGLVQPGGSLRLSCAASGFNVSSSSIHWVRQAPGKGLEWVASISSSSGSTSYADSVKGRFTISADTSKNTAYLQMNSLRAEDTAVYYCARRISSSYMSYYDSFYYAGMDYWGQGTLVTVSS
VL: DIQMTQSPSSLSASVGDRVTITCRASQSVSSAVAWYQQKPGKAPKLLIYSASSLYSGVPSRFSGSRSGTDFTLTISSLQPEDFATYYCQQSSSSLITFGQGTKVEIKR
notes: as for B2
B8: NCR3.18.17 (Fab, V domains shown)
VH: EVQLVESGGGLVQPGGSLRLSCAASGFNVSSSSIHWVRQAPGKGLEWVASISSSSGSTSYADSVKGRFTISADTSKNTAYLQMNSLRAEDTAVYYCARRVGSYYMSYYDSFYYAGMDYWGQGTLVTVSS
VL: DIQMTQSPSSLSASVGDRVTITCRASQSVSSAVAWYQQKPGKAPKLLIYSASSLYSGVPSRFSGSRSGTDFTLTISSLQPEDFATYYCQQSSSSLITFGQGTKVEIKR
notes: as for B2
B9: NCR3.18.9 (Fab, V domains shown)
VH: EVQLVESGGGLVQPGGSLRLSCAASGFNVSSSSIHWVRQAPGKGLEWVASISSSSGSTSYADSVKGRFTISADTSKNTAYLQMNSLRAEDTAVYYCARRKSSSYWSYYDSFYYAGMDYWGQGTLVTVSS
VL: DIQMTQSPSSLSASVGDRVTITCRASQSVSSAVAWYQQKPGKAPKLLIYSASSLYSGVPSRFSGSRSGTDFTLTISSLQPEDFATYYCQQSSSSLITFGQGTKVEIKR
notes: as for B2
B10: NCR3.18.18 (Fab, V domains shown)
VH: EVQLVESGGGLVQPGGSLRLSCAASGFNVSSSSIHWVRQAPGKGLEWVASISSSSGSTSYADSVKGRFTISADTSKNTAYLQMNSLRAEDTAVYYCARRVSSNYMSYYDSFYYAGMDYWGQGTLVTVSS
VL: DIQMTQSPSSLSASVGDRVTITCRASQSVSSAVAWYQQKPGKAPKLLIYSASSLYSGVPSRFSGSRSGTDFTLTISSLQPEDFATYYCQQSSSSLITFGQGTKVEIKR
notes: as for B2
B11: NCR3.18.19 (Fab, V domains shown)
VH: EVQLVESGGGLVQPGGSLRLSCAASGFNVSSSSIHWVRQAPGKGLEWVASISSSSGSTSYADSVKGRFTISADTSKNTAYLQMNSLRAEDTAVYYCARRVSSPYMSYYDSFYYAGLDYWGQGTLVTVSS
VL: DIQMTQSPSSLSASVGDRVTITCRASQSVSSAVAWYQQKPGKAPKLLIYSASSLYSGVPSRFSGSRSGTDFTLTISSLQPEDFATYYCQQSSSSLITFGQGTKVEIKR
notes: as for B2
B12: NCR3.18.11 (Fab, V domains shown)
VH: EVQLVESGGGLVQPGGSLRLSCAASGFNVSSSSIHWVRQAPGKGLEWVASISSSSGSTSYADSVKGRFTISADTSKNTAYLQMNSLRAEDTAVYYCARRLGSRYRSYYDSFYYAGMDYWGQGTLVTVSS
VL: DIQMTQSPSSLSASVGDRVTITCRASQSVSSAVAWYQQKPGKAPKLLIYSASSLYSGVPSRFSGSRSGTDFTLTISSLQPEDFATYYCQQSSSSLITFGQGTKVEIKR
notes: as for B2
B13: NCR3.18.7 (Fab, V domains shown)
VH: EVQLVESGGGLVQPGGSLRLSCAASGFNVSSSSIHWVRQAPGKGLEWVASISSSSGSTSYADSVKGRFTISADTSKNTAYLQMNSLRAEDTAVYYCARRISSYYISYYDSFYYAGMDYWGQGTLVTVSS
VL: DIQMTQSPSSLSASVGDRVTITCRASQSVSSAVAWYQQKPGKAPKLLIYSASSLYSGVPSRFSGSRSGTDFTLTISSLQPEDFATYYCQQSSSSLITFGQGTKVEIKR
notes: as for B2
B14: NCR3.18.4 (Fab, V domains shown)
VH: EVQLVESGGGLVQPGGSLRLSCAASGFNVSSSSIHWVRQAPGKGLEWVASISSSSGSTSYADSVKGRFTISADTSKNTAYLQMNSLRAEDTAVYYCARRISSHYMSYYDSFYYAGMDYWGQGTLVTVSS
VL: DIQMTQSPSSLSASVGDRVTITCRASQSVSSAVAWYQQKPGKAPKLLIYSASSLYSGVPSRFSGSRSGTDFTLTISSLQPEDFATYYCQQSSSSLITFGQGTKVEIKR
notes: as for B2
B15: NCR3.18.8 (Fab, V domains shown)
VH: EVQLVESGGGLVQPGGSLRLSCAASGFNVSSSSIHWVRQAPGKGLEWVASISSSSGSTSYADSVKGRFTISADTSKNTAYLQMNSLRAEDTAVYYCARRISSYYVSYYDSFYYAGMDYWGQGTLVTVSS
VL: DIQMTQSPSSLSASVGDRVTITCRASQSVSSAVAWYQQKPGKAPKLLIYSASSLYSGVPSRFSGSRSGTDFTLTISSLQPEDFATYYCQQSSSSLITFGQGTKVEIKR
notes: as for B2
B16: NCR3.18.15 (Fab, V domains shown)
VH: EVQLVESGGGLVQPGGSLRLSCAASGFNVSSSSIHWVRQAPGKGLEWVASISSSSGSTSYADSVKGRFTISADTSKNTAYLQMNSLRAEDTAVYYCARRTSSHYISYYDSFYYAGMDYWGQGTLVTVSS
VL: DIQMTQSPSSLSASVGDRVTITCRASQSVSSAVAWYQQKPGKAPKLLIYSASSLYSGVPSRFSGSRSGTDFTLTISSLQPEDFATYYCQQSSSSLITFGQGTKVEIKR
notes: as for B2

How the values were obtained:
[1] = molecular target: T1, NCR3 (antigen of the ELISA in the …); assay: ELISA, Fab on NCR3
[2] = molecular target: T2, NCR3 on cell (on-cell binding in the …); assay: on-cell binding, Fab on NCR3

Row | EC50 [1] [nM] | EC50 [2] [nM] | Binder
1 | 0.78 | 2.14 | B1
2 | 0.68 | 1.61 | B2
3 | 0.98 | 2.55 | B3
4 | 0.57 | 3.11 | B4
5 | 0.53 | 2.13 | B5
6 | 1.11 | 4.09 | B6
7 | 1.38 | 4.67 | B7
8 | 0.58 | 2.11 | B8
9 | 0.51 | 2.24 | B9
10 | 2.2 | 3.39 | B10
11 | 0.38 | 1.41 | B11
12 | 0.77 | 1.47 | B12
13 | 1.23 | 3.19 | B13
14 | 2.29 | 1.44 | B14
15 | 0.95 | 2.74 | B15
16 | 2.98 | 6.76 | B16
